Measured values published in article doi:10.1101/2023.10.30.564738 (bioRxiv, 2023).

Molecular target: Ndc80 complex (Ndc80-Flag:Nuf2:Spc24:Spc25) (S. cerevisiae, UniProt P40460 1-691; P33895 1-451; Q04477 1-213; P40014 1-221)
Assay: SEC

Sequence of Ndc80 complex (Ndc80-Flag:Nuf2:Spc24:Spc25) (P40460 whole entry, chain 1 of 4): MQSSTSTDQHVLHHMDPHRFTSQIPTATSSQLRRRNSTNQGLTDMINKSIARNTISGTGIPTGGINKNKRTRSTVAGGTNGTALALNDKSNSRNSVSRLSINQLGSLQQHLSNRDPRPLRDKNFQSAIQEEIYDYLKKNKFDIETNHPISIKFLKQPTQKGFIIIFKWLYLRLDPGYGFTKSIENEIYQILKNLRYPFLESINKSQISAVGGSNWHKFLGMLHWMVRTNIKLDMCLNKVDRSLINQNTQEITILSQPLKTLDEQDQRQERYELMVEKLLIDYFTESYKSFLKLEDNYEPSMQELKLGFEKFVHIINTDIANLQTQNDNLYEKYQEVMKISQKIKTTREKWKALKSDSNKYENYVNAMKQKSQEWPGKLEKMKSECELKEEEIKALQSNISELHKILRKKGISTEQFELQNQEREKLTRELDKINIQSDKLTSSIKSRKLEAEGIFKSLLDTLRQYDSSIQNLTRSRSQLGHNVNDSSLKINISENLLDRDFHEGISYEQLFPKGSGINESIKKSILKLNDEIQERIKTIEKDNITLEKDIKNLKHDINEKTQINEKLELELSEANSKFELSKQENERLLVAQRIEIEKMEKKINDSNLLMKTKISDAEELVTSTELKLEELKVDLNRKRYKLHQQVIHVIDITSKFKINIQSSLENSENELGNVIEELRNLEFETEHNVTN
Sequence of Ndc80 complex (Ndc80-Flag:Nuf2:Spc24:Spc25) (P33895 whole entry, chain 2 of 4): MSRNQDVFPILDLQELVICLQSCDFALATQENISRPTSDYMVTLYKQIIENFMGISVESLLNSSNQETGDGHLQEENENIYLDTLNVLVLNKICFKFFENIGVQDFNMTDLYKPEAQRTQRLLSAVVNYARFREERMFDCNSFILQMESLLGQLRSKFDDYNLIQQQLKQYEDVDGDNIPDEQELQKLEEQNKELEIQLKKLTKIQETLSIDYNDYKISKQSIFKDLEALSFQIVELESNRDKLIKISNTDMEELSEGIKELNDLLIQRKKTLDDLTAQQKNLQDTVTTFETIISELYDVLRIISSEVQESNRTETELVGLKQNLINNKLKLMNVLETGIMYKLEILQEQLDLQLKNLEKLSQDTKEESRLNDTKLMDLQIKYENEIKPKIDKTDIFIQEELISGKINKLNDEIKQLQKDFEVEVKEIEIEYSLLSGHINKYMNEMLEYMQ
Sequence of Ndc80 complex (Ndc80-Flag:Nuf2:Spc24:Spc25) (Q04477 whole entry, chain 3 of 4): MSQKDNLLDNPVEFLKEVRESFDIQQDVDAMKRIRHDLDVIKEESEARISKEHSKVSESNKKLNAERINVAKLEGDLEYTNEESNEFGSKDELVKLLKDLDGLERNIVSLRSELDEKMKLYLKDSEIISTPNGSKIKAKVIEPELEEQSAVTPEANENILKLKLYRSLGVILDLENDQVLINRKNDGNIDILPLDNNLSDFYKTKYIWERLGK
Sequence of Ndc80 complex (Ndc80-Flag:Nuf2:Spc24:Spc25) (P40014 whole entry, chain 4 of 4): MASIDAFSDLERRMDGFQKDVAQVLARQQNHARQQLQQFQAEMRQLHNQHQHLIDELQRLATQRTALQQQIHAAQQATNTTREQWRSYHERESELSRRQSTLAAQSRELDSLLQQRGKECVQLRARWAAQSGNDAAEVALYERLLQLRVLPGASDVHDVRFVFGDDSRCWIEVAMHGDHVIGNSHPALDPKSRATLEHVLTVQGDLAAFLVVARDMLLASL

B1: StrepII-tagged full-length Mps1 (wild type) (natural protein, S. cerevisiae, UniProt P54199 1-764, looked up)
chain: MSTNSFHDYVDLKSRTNTRQFSDDEEFTTPPKLSNFGSALLSHTEKTSASEILSSHNNDKIANRLEEMDRSSSRSHPPPSMGNLTSGHTSTSSHSTLFGRYLRNNHQTSMTTMNTSDIEINVGNSLDKSFERIRNLRQNMKEDITAKYAERRSKRFLISNRTTKLGPAKRAMTLTNIFDEDVPNSPNQPINARETVELPLEDSHQTNFKETKRNTDYDSIDFGDLNPIQYIKKHNLPTSDLPLISQIYFDKQREENRQAALRKHSSRELLYKSRSSSSSLSSNNLLANKDNSITSNNGSQPRRKVSTGSSSSKSSIEIRRALKENIDTSNNSNFNSPIHKIYKGISRNKDSDSEKREVLRNISINANHADNLLQQENKRLKRSLDDAITNENINSKNLEVFYHRPAPKPPVTKKVEIVEPAKSASLSNNRNIITVNDSQYEKIELLGRGGSSRVYKVKGSGNRVYALKRVSFDAFDDSSIDGFKGEIELLEKLKDQKRVIQLLDYEMGDGLLYLIMECGDHDLSQILNQRSGMPLDFNFVRFYTKEMLLCIKVVHDAGIVHSDLKPANFVLVKGILKIIDFGIANAVPEHTVNIYRETQIGTPNYMAPEALVAMNYTQNSENQHEGNKWKVGRPSDMWSCGCIIYQMIYGKPPYGSFQGQNRLLAIMNPDVKIPFPEHTSNNEKIPKSAIELMKACLYRNPDKRWTVDKVLSSTFLQPFMISGSIMEDLIRNAVRYGSEKPHISQDDLNDVVDTVLRKFADYKI
binding result: binds

B2: StrepII-tagged full-length Mps1^bp (R151D R152D R155D) (natural protein, S. cerevisiae, UniProt P54199 1-764, looked up)
chain: MSTNSFHDYVDLKSRTNTRQFSDDEEFTTPPKLSNFGSALLSHTEKTSASEILSSHNNDKIANRLEEMDRSSSRSHPPPSMGNLTSGHTSTSSHSTLFGRYLRNNHQTSMTTMNTSDIEINVGNSLDKSFERIRNLRQNMKEDITAKYAEDDSKDFLISNRTTKLGPAKRAMTLTNIFDEDVPNSPNQPINARETVELPLEDSHQTNFKETKRNTDYDSIDFGDLNPIQYIKKHNLPTSDLPLISQIYFDKQREENRQAALRKHSSRELLYKSRSSSSSLSSNNLLANKDNSITSNNGSQPRRKVSTGSSSSKSSIEIRRALKENIDTSNNSNFNSPIHKIYKGISRNKDSDSEKREVLRNISINANHADNLLQQENKRLKRSLDDAITNENINSKNLEVFYHRPAPKPPVTKKVEIVEPAKSASLSNNRNIITVNDSQYEKIELLGRGGSSRVYKVKGSGNRVYALKRVSFDAFDDSSIDGFKGEIELLEKLKDQKRVIQLLDYEMGDGLLYLIMECGDHDLSQILNQRSGMPLDFNFVRFYTKEMLLCIKVVHDAGIVHSDLKPANFVLVKGILKIIDFGIANAVPEHTVNIYRETQIGTPNYMAPEALVAMNYTQNSENQHEGNKWKVGRPSDMWSCGCIIYQMIYGKPPYGSFQGQNRLLAIMNPDVKIPFPEHTSNNEKIPKSAIELMKACLYRNPDKRWTVDKVLSSTFLQPFMISGSIMEDLIRNAVRYGSEKPHISQDDLNDVVDTVLRKFADYKI
binding result: binds
